# Changes are numbered by the printed parent chain. Numbers in names are those of the source.
# T1: Flag-tagged human NgR (human, UniProt Q9BZR6 27-447)
# T1 construct: Nogo-66 receptor (NgR), human; Printed both as Flag-hNgR and as NgR-Flag; also called Flag-hNgR; NgR-Flag; source: HEK293, transfected, in lysate
# T1 sequence (looked up): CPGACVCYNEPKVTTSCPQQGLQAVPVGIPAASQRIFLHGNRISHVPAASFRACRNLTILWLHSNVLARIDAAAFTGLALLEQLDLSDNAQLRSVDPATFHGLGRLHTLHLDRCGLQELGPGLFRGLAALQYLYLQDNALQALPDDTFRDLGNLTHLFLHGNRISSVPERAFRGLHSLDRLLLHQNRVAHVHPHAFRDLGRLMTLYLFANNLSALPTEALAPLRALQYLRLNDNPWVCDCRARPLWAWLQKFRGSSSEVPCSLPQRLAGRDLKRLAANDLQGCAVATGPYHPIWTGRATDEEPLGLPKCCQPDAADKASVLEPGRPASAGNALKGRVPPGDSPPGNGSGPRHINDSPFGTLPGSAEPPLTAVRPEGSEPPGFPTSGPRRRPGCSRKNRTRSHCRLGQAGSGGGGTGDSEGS
# T2: p75ICD (residues 290–418) (human, UniProt P08138 290-418)
# T2 chain: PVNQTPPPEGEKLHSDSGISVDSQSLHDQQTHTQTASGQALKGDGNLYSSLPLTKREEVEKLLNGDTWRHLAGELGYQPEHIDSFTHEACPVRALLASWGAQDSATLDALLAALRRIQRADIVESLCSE
# B1: p75 D372R (full-length) (receptor, UniProt P07174 30-425, looked up)
# chain: KETCSTGLYTHSGECCKACNLGEGVAQPCGANQTVCEPCLDNVTFSDVVSATEPCKPCTECLGLQSMSAPCVEADDAVCRCAYGYYQDEETGHCEACSVCEVGSGLVFSCQDKQNTVCEECPEGTYSDEANHVDPCLPCTVCEDTERQLRECTPWADAECEEIPGRWIPRSTPPEGSDSTAPSTQEPEVPPEQDLVPSTVADMVTTVMGSSQPVVTRGTTDNLIPVYCSILAAVVVGLVAYIAFKRWNSCKQNKQGANSRPVNQTPPPEGEKLHSDSGISVDSQSLHDQQTHTQTASGQALKGDGNLYSSLPLTKREEVEKLLNGDTWRHLAGELGYQPEHIRSFTHEACPVRALLASWGAQDSATLDALLAALRRIQRADIVESLCSESTATSPV
# notes: p75 neurotrophin receptor; source: HEK293, transfected, in lysate
# B2: p75 H376E (full-length) (receptor, UniProt P07174 30-425, looked up)
# chain: B1 chain with R343D, H347E
# notes: as for B1
# B3: p75 E377R (full-length) (receptor, UniProt P07174 30-425, looked up)
# chain: B1 chain with R343D, E348R
# notes: as for B1
# B4: p75-C257A (full-length) (receptor, UniProt P07174 30-425, looked up)
# chain: B1 chain with C228A, R343D
# notes: p75 neurotrophin receptor; also called p75 TM domain mutant; source: HEK293, transfected, in lysate
# B5: p75ICD (residues 290–418) (domain or fragment)
# chain: T2 chain
# modifications: Methods print 'human p75ICD', but all residue numbers (L360, E363, Q367, D372, H376, E377, C379, W388, R404) and the mapped structure 1NGR fit the rat precursor; human P08138 is offset by +2 in this …
# Columns and labels:
# [1] = biological target: T1, Flag-tagged human NgR; assay: co-IP; HEK293 co-transfected with wild-type or mutant p75 and Flag-tagged NgR; p75 co-immunoprecipitated with NgR; blots quantified, wild type = 100%; settings: partners not purified
# [2] = biological target: T2, p75ICD (residues 290–418); assay: NMR titration; TROSY spectra of 15N-labelled p75ICD at different concentrations (10, 100, 500 µM) with DTT; 25 °C, PBS pH 8.0, 100 mM NaCl; monomer to dimer; settings: both partners purified
# [3] = biological target: T2, p75ICD (residues 290–418); assay: SEC; S200-Superdex gel filtration, 4 °C, PBS pH 8.0, 0.7 ml/min; p75ICD purified with or without DTT (or with iodoacetamide in the lysis buffer); settings: both partners purified
binder,measurement,setting,value
B1,"percent co-immunoprecipitated with NgR (WT, 100%)",[1],61.8%
B2,"percent co-immunoprecipitated with NgR (WT, 100%)",[1],125%
B3,"percent co-immunoprecipitated with NgR (WT, 100%)",[1],27.4%
B4,"percent co-immunoprecipitated with NgR (WT, 100%)",[1],17.7%
B5,Kd,[2],~100 µM
same,stoichiometry N,[3],2

# From paper PMC4122344, “Heterodimerization of p45–p75 Modulates p75 Signaling: Structural Basis and Mechanism of Action” (PLoS Biology, 2014)
